# Patent publication US20230331846A1 (INHIBRX, published 2023)
# T1: canine PD-1 (canine)
# T1 construct: Expressed full length on transiently transfected 293FS cells; also called full length canine PD-1
# T1 chain: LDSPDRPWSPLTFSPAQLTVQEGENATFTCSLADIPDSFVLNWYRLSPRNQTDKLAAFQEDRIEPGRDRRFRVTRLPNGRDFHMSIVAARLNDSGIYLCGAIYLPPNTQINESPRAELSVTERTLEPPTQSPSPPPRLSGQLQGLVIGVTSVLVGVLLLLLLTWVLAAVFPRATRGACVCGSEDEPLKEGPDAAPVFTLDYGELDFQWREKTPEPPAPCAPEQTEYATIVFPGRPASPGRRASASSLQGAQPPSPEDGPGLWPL
# Legend:
# [1] = biological target: T1, canine PD-1; assay: flow cytometry, sdAb titrated on 293FS cells expressing canine PD-1 (title: canPD1 binding), anti-canine Fc 647 secondary
# Method: (§1) Binding of the sdAbs to canine PD-1 was determined as follows. Transiently transfected 293FS cells that express full length canine PD-1 and untransfected 293FS cells were plated at 50,000 cells/well in separate wells. Antibodies were titrated serially diluted 1:3 starting at 400 nM, and detected with anti-canine Fc 647 secondary antibody. Flow cytometric analysis was performed on an Intellicyte iQue analyzer and fluorescence was plotted as median fluorescence intensity.
# [2] = biological target: T1, canine PD-1; assay: flow cytometry blocking assay: sdAb titrated against 3 nM canine PD-L1-hFc (the blocked ligand) on 293FS cells expressing canine PD-1
# Method: (§2) Binding of canine PD-1 to PD-L1 in the presence of the sdAbs described in Example 1 was determined as follows. Each sdAb was incubated for 1 hour at room temperature in a PBS buffer, with 3 or 4 nM canine PD-L1-hFc fusion (Sino Biological) and untransfected 293FS cells or transfected 293FS cells expressing full length canine PD-1 (SEQ ID NO: 1). A fluorescent anti-Fc specific secondary antibody was used to detect […] by flow cytometry using an Intellicyte iQue analyzer. Mean fluorescence intensity was plotted for each concentration of sdAb tested.
# [3] = biological target: T1, canine PD-1; assay: flow cytometry on 293FS cells transiently expressing full length canine PD-1
# Method: as §1
# [4] = biological target: T1, canine PD-1; assay: flow cytometry blocking assay: sdAb titrated against 4 nM canine PD-L1-hFc (the blocked ligand) on 293FS cells expressing canine PD-1
# Method: as §2
# [5] = biological target: T1, canine PD-1; assay: cell-based or functional assay
# [6] = biological target: canine CD64 (canine) (UniProt Q7YQJ5); assay: flow cytometry, sdAb titrated on 293FS cells transfected with full length canine CD64, anti-canine Fc 647 secondary
# canine CD64 (canine), sequence (Q7YQJ5 entry or part of it): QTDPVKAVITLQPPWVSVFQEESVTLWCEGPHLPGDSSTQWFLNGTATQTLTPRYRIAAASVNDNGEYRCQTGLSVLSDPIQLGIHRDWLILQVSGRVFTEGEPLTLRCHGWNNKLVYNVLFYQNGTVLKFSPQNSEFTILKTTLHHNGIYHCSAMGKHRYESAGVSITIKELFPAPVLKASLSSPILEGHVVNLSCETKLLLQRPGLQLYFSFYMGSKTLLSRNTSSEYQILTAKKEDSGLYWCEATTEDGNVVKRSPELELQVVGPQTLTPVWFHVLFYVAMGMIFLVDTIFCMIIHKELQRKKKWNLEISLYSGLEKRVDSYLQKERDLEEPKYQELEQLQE
Binder,EC50 (read off the curve) [1] [nM],IC50 (read off the curve) [2] [nM],Kd [3] [nM],IC50 (read off the curve) [4] [nM],"EC50 (nM), CD4 T cells (canine PBMCs, background corrected mean fluorescence intensity) [5] [nM]","EC50 (nM), CD8 T cells (canine PBMCs, background corrected mean fluorescence intensity) [5] [nM]",EC50 (read off the curve) [6] [nM]
PD1-5-Fc xEML-DANA (Fc fusion) QVTLRESGGGLVQPGGSLRLSCAASGLTFGLYAMTWFRQAPGKDREGISCISSSDGSTIYADSVKGRFTASRDNAKDTMYLQMNNLNPEDTAVYYCATDYETRCDYGLRLRDRTAYWGPGTQVTVKPENGRVPRPPDCPKCPAPGGPSVFIFPPKPKDTLLIARTPEVTCVVVALDPEDPEVQISWFVDGKQMQTAKTQPREEQFAGTYRVVSVLPIGHQDWLKGKQFTCKVNNKALPSPIERTISKARGQAHQPSVYVLPPSREELSKNTVSLTCLIKDFFPPDIDVEWQSNGQQEPESKYRTTPPQLDEDGSYFLYSKLSVDKSRWQRGDTFICAVMHEALHNHYTQKSLSHSPGK,~2,~2,< 10,,,,
PD1-8-Fc xEML-DANA (Fc fusion) QVQLQQSGGGLVQAGGSLRVSCAASGRTFSSYGMGWFRQAPGKEREFVAAISWSGGTQYYADSAKGRFTISRDNAKNTVYLQMNSLKPEDTAVYYCADYTDYVVYRPQEIGYWGQGTQVTVKPENGRVPRPPDCPKCPAPGGPSVFIFPPKPKDTLLIARTPEVTCVVVALDPEDPEVQISWFVDGKQMQTAKTQPREEQFAGTYRVVSVLPIGHQDWLKGKQFTCKVNNKALPSPIERTISKARGQAHQPSVYVLPPSREELSKNTVSLTCLIKDFFPPDIDVEWQSNGQQEPESKYRTTPPQLDEDGSYFLYSKLSVDKSRWQRGDTFICAVMHEALHNHYTQKSLSHSPGK,~2,,< 10,,,,
"czPD1-14v2-Fc xEML-DANA (Fc fusion, Dimer formation is stated only in embodiment language) EVQLVESGGGEVKPGGSLRLSCVASGRTVSIYAMGWFRQAPGKEREFVAGIGWNGGTTYYADAVKGRFTISRDNAKNTVYLQMSSLRAEDTAVYYCAAQESAAGTLGDYWGQGTQVTVKPGGGGENGRVPRPPDCPKCPAPGGPSVFIFPPKPKDTLLIARTPEVTCVVVALDPEDPEVQISWFVDGKQMQTAKTQPREEQFAGTYRVVSVLPIGHQDWLKGKQFTCKVNNKALPSPIERTISKARGQAHQPSVYVLPPSREELSKNTVSLTCLIKDFFPPDIDVEWQSNGQQEPESKYRTTPPQLDEDGSYFLYSKLSVDKSRWQRGDTFICAVMHEALHNHYTQKSLSHSPGK",,,6.65,~6,9.15,27.2,

# Other lines, results leading:
EC50 (read off the curve) [1] [nM],IC50 (read off the curve) [2] [nM],Kd [3] [nM],IC50 (read off the curve) [4] [nM],"EC50 (nM), CD4 T cells (canine PBMCs, background corrected mean fluorescence intensity) [5] [nM]","EC50 (nM), CD8 T cells (canine PBMCs, background corrected mean fluorescence intensity) [5] [nM]",EC50 (read off the curve) [6] [nM],Binder
~2,~2,8.82,~6,1.7,0.764,,"PD1-14-Fc xEML-DANA (Fc fusion, Dimer formation is stated only in embodiment language) QVQLQQSGGGLAQAGGSLRLSCAASGRTVSIYAMGWFRQAPGKEREFVAGIGWNGGTTYYADSVEGRFTISRDHAKNTAYLQMNSLKPEDTAVYYCAAQESAAGTLGDYWGRGTQVTVKPGGGGENGRVPRPPDCPKCPAPGGPSVFIFPPKPKDTLLIARTPEVTCVVVALDPEDPEVQISWFVDGKQMQTAKTQPREEQFAGTYRVVSVLPIGHQDWLKGKQFTCKVNNKALPSPIERTISKARGQAHQPSVYVLPPSREELSKNTVSLTCLIKDFFPPDIDVEWQSNGQQEPESKYRTTPPQLDEDGSYFLYSKLSVDKSRWQRGDTFICAVMHEALHNHYTQKSLSHSPGK"
,,3.24,~6,,,,"czPD1-14v3-Fc xEML-DANA (Fc fusion, Dimer formation is stated only in embodiment language) EVQLVESGGGEVKPGGSLRLSCVASGRTVSIYAMGWFRQAPGKEREFVAGIGWNGGTTYYADAVKGRFTISRDHAKNTVYLQMSSLRAEDTAVYYCAAQESAAGTLGDYWGQGTQVTVKPGGGGENGRVPRPPDCPKCPAPGGPSVFIFPPKPKDTLLIARTPEVTCVVVALDPEDPEVQISWFVDGKQMQTAKTQPREEQFAGTYRVVSVLPIGHQDWLKGKQFTCKVNNKALPSPIERTISKARGQAHQPSVYVLPPSREELSKNTVSLTCLIKDFFPPDIDVEWQSNGQQEPESKYRTTPPQLDEDGSYFLYSKLSVDKSRWQRGDTFICAVMHEALHNHYTQKSLSHSPGK"
,,4.15,~6,,,,czPD1-14v1-Fc xEML-DANA (Fc fusion) EVQLVESGGGEVKPGGSLRLSCVASGRTVSIYAMGWFRQAPGKEREFVAGIGWSGGTTYYADAVKGRFTISRDNAKNTVYLQMSSLRAEDTAVYYCAAQESAAGTLGDYWGQGTQVTVKPGGGGENGRVPRPPDCPKCPAPGGPSVFIFPPKPKDTLLIARTPEVTCVVVALDPEDPEVQISWFVDGKQMQTAKTQPREEQFAGTYRVVSVLPIGHQDWLKGKQFTCKVNNKALPSPIERTISKARGQAHQPSVYVLPPSREELSKNTVSLTCLIKDFFPPDIDVEWQSNGQQEPESKYRTTPPQLDEDGSYFLYSKLSVDKSRWQRGDTFICAVMHEALHNHYTQKSLSHSPGK
,,,,,,9,"cCD19-4A8-Fc (Fc fusion, part only; not given: CD19 binding part, linker, not shown: another chain or arm of the molecule; small tags and cut ends) Fc: ENGRVPRPPDCPPCPAPEMLGGPSVFIFPPKPKDTLLIARTPEVTCVVVDLDPEDPEVQISWFVDGKQMQTAKTQPREEQFNGTYRVVSVLPIGHQDWLKGKQFTCKVNNKALPSPIERTISKARGQAHQPSVYVLPPSREELSKNTVSLTCLIKDFFPPDIDVEWQSNGQQEPESKYRTTPPQLDEDGSYFLYSKLSVDKSRWQRGDTFICAVMHEALHNHYTQKSLSHSPGK"
~2,~2,< 10,,,,,"PD1-13-Fc xEML-DANA (Fc fusion, Dimer formation is stated only in embodiment language) QVTLKESGGGLVQAGGSLRLSCAASGRTEIIYAMGWFRQAPGKEREFVAGIGWSGGTTYYADSVEGRFTISRDSAKNTVYLQMRSLKPEDTAVYYCAAQDSVAGTLGDYWGQGTQVTVKPGGGGENGRVPRPPDCPKCPAPGGPSVFIFPPKPKDTLLIARTPEVTCVVVALDPEDPEVQISWFVDGKQMQTAKTQPREEQFAGTYRVVSVLPIGHQDWLKGKQFTCKVNNKALPSPIERTISKARGQAHQPSVYVLPPSREELSKNTVSLTCLIKDFFPPDIDVEWQSNGQQEPESKYRTTPPQLDEDGSYFLYSKLSVDKSRWQRGDTFICAVMHEALHNHYTQKSLSHSPGK"
